Each block holds one substance with its values, some of them ahead of it.
Columns and labels:
[1] = target: wild-type cholecystokinin A receptor (CCKAR) (UniProt P32238)
[2] = target: wild-type cholecystokinin A receptor (CCKAR) (UniProt P32238); remark: listed apart in the source
CCKAR I296G = CCKAR I296G (UniProt P32238)

Substance: Gi heterotrimer of the BRET G-protein dissociation assay (from UniProt P63096 1-354; P62873 1-340; P59768 1-71) (complex)
- pEC50 of CCK-8 in the BRET G-protein dissociation assay (Gβγ-Venus to GRK3ct-luciferase), cells with CCKAR and Gi (Supplementary Table 3, Receptor + Gi) [1]: 7.32

Substance: Gi heterotrimer of the NanoBiT G-protein recruitment assay (Gαi1, SmBiT-fused human Gβ1, human Gγ2) (from UniProt P63096 1-354; P62873 1-340; P59768 1-71) (complex)
- pEC50 of CCK-8, Gi-coupling activity by NanoBiT G-protein recruitment assay (CCKAR-LgBiT and SmBiT-Gβ1 in sf9 cells; Supplementary Table 4, WT) [2]: 6.81
- pEC50 of CCK-8, Gi-coupling activity by NanoBiT G-protein recruitment assay (CCKAR-LgBiT and SmBiT-Gβ1 in sf9 cells; Supplementary Table 4, I296G) (CCKAR I296G): 6.66

Substance: Gq heterotrimer of the BRET G-protein dissociation assay (from UniProt P50148 1-359; P62873 1-340; P59768 1-71) (complex)
- pEC50 of CCK-8, Gq-coupling activity by BRET assay (Supplementary Table 4, WT) [2]: 9.14
- pEC50 of CCK-8, Gq-coupling activity by BRET assay (Supplementary Table 4, I296G) (CCKAR I296G): 8.38
- pEC50 of CCK-8 in the BRET G-protein dissociation assay (Gβγ-Venus to GRK3ct-luciferase), cells with CCKAR and Gq (Supplementary Table 3, Receptor + Gq) [1]: 8.42

Further lines, results first:

- pEC50 of CCK-8 in the BRET G-protein dissociation assay (Gβγ-Venus to GRK3ct-luciferase), cells with CCKAR and Gs (Supplementary Table 3, Receptor + Gs) [1]: 7.92
Substance: Gs heterotrimer of the BRET G-protein dissociation assay (from UniProt P63092 1-394; P62873 1-340; P59768 1-71) (complex)

- pEC50 of CCK-8, Gs-coupling activity by NanoBiT G-protein dissociation assay (Gαs-LgBiT and SmBiT-Gγ in HEK 293T/17 cells; Supplementary Table 4, WT) [2]: 10.5
- pEC50 of CCK-8, Gs-coupling activity by NanoBiT G-protein dissociation assay (Gαs-LgBiT and SmBiT-Gγ in HEK 293T/17 cells; Supplementary Table 4, I296G) (CCKAR I296G): 10.5
Substance: Gs heterotrimer of the NanoBiT G-protein dissociation assay (Gαs-LgBiT, Gβ, SmBiT-Gγ) (from UniProt P63092 1-394; P62873 1-340; P59768 1-71) (complex)

— article PMC8604728
